For experiment [1], the target named is 8.3 T cell receptor on CD8+ T cells of 8.3 TCR transgenic NOD mice (mouse (NOD)). As to the kind of experiment: cell-based or functional assay.
In experiment [2] the target is T1, synTac 4-1BBL trimer (synTac 40+51; 4-1BBL synTac co-expressed with free 4-1BBL) (murine, UniProt P41273 50-254 (human entry), Interchain disulfide between linker Cys (GCGAS) and H-2Kd Cys84. Fc hinge disulfides join two synTac units. Two free 4-1BBL chains join each synTac-borne 4-1BBL non-covalently.).
T1 construct: also called Native trimer; trimeric syntac-41BBL
Briefly: flow cytometry, Protein A microbeads coated with 4-1BB-Fc; detection antibody to the synTac heavy chain isotype. A general note: In flow cytometry, cells or beads pass a laser one at a time.

In experiment [1], “synTac IGRP-PD-L1 (light chain version) (from UniProt Q9Z186 206-214; P01902 22-305) (peptide-MHC)” gave an IFNγ secretion by anti-CD3 stimulated CD8+ 8.3 T cells (suppression) of 100 fold.

B1: recombinant mouse 4-1BB-Fc fusion protein (Fc fusion, UniProt P20334 24-187, looked up)
chain: VQNSCDNCQPGTFCRKYNPVCKSCPPSTFSSIGGQPNCNICRVCAGYFRFKKFCSSTHNAECECIEGFHCLGPQCTRCEKDCRPGQELTKQGCKTCSLGTFNDQNGTGVCRPWTNCSLDGRSVLKTGTTEKDVVCGPPVVSFSPSTTISVTPEGGPGGHSLQVL
notes: From commercial sources; coated on Protein A microbeads; also called murine 4-1BB; murine receptor; not shown: Fc of the commercial fusion protein
With B1, the binding result in experiment [2] was “binds”.

Source of the values: patent publication US20170058015A1 (ALBERT EINSTEIN COLLEGE OF MEDICINE, published 2017).
